For assay [1], the target named is Insulin-degrading enzyme wild type (rat). The experiment in a line: SEC with static light scattering (SLS); 200 μg injected into a Superdex G-200 column, working buffer, 0.5 ml/min; 90° light scattering with UV or refractive index; calibrated with BSA.
For assay [2], the target named is Proteolytically inactive recombinant insulin-degrading enzyme with Glu111 replaced by Gln (rat). The description is as above.

“And” between values parts separate entries of the source, which are not always exact repeats. Equal entries are not always repeated.

Regarding Insulin-degrading enzyme wild type, the stoichiometry N (as a rule, the number of molecules, sites or subunits per partner or assembly) in assay [1] was 4 and 2.

In the case of “Proteolytically inactive recombinant insulin-degrading enzyme with Glu111 replaced by Gln”, the stoichiometry N in assay [2] is 2 and 4.

These data come from publication PMC3623905.
